Measured values taken from article PMC12913813.

Molecular target: Smog::GFP (Drosophila)
Assay: fluorescence correlation spectroscopy

## Smog::GFP (receptor)
  estimated fraction of dimers (monomer/dimer model), WT embryos: 68%
  estimated fraction of dimers (monomer/dimer model), control embryos: 79%
  estimated fraction of dimers (monomer/dimer model), gprk2 RNAi embryos: 100%
  estimated fraction of trimers (monomer/trimer model), control embryos: 21%
  estimated fraction of trimers (monomer/trimer model), gprk2 RNAi embryos: 76%
